Data set [1] concerns the target T1, His6-TyrR (Enterobacter cloacae UW5?) (UniProt B2D1S2).
T1 sequence: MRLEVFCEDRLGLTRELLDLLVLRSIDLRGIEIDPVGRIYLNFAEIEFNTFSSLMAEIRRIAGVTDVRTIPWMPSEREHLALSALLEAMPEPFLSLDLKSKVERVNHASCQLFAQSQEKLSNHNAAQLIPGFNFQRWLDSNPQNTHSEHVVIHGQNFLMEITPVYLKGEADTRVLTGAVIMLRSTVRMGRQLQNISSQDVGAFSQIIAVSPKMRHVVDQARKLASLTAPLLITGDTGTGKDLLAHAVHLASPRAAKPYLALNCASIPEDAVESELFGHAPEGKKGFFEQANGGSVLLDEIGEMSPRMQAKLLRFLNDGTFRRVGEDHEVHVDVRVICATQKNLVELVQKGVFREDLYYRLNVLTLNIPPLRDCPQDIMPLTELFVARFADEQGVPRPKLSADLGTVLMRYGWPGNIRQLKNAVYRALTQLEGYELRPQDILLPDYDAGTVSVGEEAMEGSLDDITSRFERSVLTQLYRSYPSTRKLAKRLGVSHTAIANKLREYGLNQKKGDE
Put plainly: EMSA. The conditions noted are these: 20% glycerol, 250 mM NaCl, 50 mM Tris-Cl pH 7.5, 5 mM MgCl2, 2.5 mM DTT, 2.5 mM EDTA, 0.1 mM ATP, 0.1 mM Trp, Phe or Tyr, 1 ug poly d(I-C), 50 ng DNA, room ….

Data set [2] deals with T1, His6-TyrR (Enterobacter cloacae UW5?). In words: competition. The conditions noted are these: 20% glycerol, 250 mM NaCl, 50 mM Tris-Cl pH 7.5, 5 mM MgCl2, 2.5 mM DTT, 2.5 mM EDTA, 0.1 mM ATP, 0.1 mM Trp, Phe or Tyr, 1 ug poly d(I-C), 50 ng DNA, room ….

In the case of “GGTTCGCATAACAGGTGTCCTTCTGACGTTGACCTCACTTTGAGTATTAAAGAAGCGTGATGGCTGTCCAGAATTGGTCGTAAGAAGGGCATAGAAAGAATGCTTTATAAAAAAGGCTGCGCTATGCTCTTTTTTTTCATATAAATATAAACGTATATACTGATTTTTCCTTTCAGCGCCAGAGGGCATCAGAATGGG (double strand) [akr-ipdC double weak and strong box mutant]”, in data set [1], the binding entry was “no binding”.

“GGTTCGCATAACAGGTGTCCTTCTGACGTTGACCTCACTTTGAGTATTAAAGAAGCGTGATGGCTGTCCAGAATTGGTCGTAAGAAGGGCATAGAAAGAATGCTTTATAAAAAAGGCTGCGCTATGCTCTTTTTTTTCATGTAAATGTAAACGTATACACTGATTTTTCCTTTCAGCGCCAGAGGGCATCAGAATGGG (double strand) [akr-ipdC strong box mutant]”: in data set [1], the binding entry is listed as “binds more weakly”.

Take “GGTTCGCATAACAGGTGTCCTTCTGACGTTGACCTCACTTTGAGTATTAAAGAAGCGTGATGGCTGTCCAGAATTGGTCGTAAGAAGGGCATGGAAAGAATGCTTTACAAAAAAGGCTGCGCTATGCTCTTTTTTTTCATATAAATATAAACGTATATACTGATTTTTCCTTTCAGCGCCAGAGGGCATCAGAATGGG (double strand) [akr-ipdC weak box mutant]”: the binding entry in data set [1] is “binds”.

Regarding “GGTTCGCATAACAGGTGTCCTTCTGACGTTGACCTCACTTTGAGTATTAAAGAAGCGTGATGGCTGTCCAGAATTGGTCGTAAGAAGGGCATGGAAAGAATGCTTTACAAAAAAGGCTGCGCTATGCTCTTTTTTTTCATGTAAATGTAAACGTATACACTGATTTTTCCTTTCAGCGCCAGAGGGCATCAGAATGGG (double strand) [akr-ipdC intergenic region wild-type]”, the binding entry in data set [1] and in data set [2] was “binds” each time.

Values taken from article PMC4374768.
